Legend:
[1] = target: Coiled coil domain of Atg4L (Atg14L coiled coil) (Mus musculus (Mouse)) (UniProt Q8CDJ3); experiment: ITC
[2] = target: Coiled coil domain of UVRAG (228-276) (Mus musculus) (UniProt Q8K245); experiment: ITC
Sequence of Coiled coil domain of UVRAG (228-276) (Mus musculus) (Q8K245 other isoform, or with tags, fused parts or gaps limits assumed): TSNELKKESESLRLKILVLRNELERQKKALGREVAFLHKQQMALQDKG

Sequence of Coiled coil domain of Atg4L (Atg14L coiled coil) (Mus musculus (Mouse)) (Q8CDJ3 other isoform, or with tags, fused parts or gaps limits assumed): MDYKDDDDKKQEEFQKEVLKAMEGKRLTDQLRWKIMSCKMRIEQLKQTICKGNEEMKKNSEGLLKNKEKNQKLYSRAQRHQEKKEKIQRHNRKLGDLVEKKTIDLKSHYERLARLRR

Kd [1]: 0.5 µM
Kd [2]: 0.01 µM
fold stronger than wild-type Beclin1 [2]: 20 times
Substance: Beclin1 mutant L241E/L245E (from UniProt Q91XJ1 174-266)

Source: US20180002381A1
